Patent EP4471049A1 (Zealand Pharma A/S, priority 2023, dated 2024)
One block for each molecule: values may come before it. *1 amine or outer side, *2 acyl side, *3 side chain or, on linkers, in order; H or OH if unused. Where a SMILES comes first, the peptide text is derived from it. Bridges are numbered along the chain shown (N, C = ends). Where no end group is shown, it is not given here. [ ]: non-standard residue; d: D form. 4‑Aminomethyl‑phenylacetyl = 4-aminomethyl-phenylacetyl unit, its amine closes the lactam, O=C(Cc1ccc(CN[*:1])cc1)[*:2]; 2Nal = N[C@@H](Cc1ccc2ccccc2c1)C(=O)O; AEF = NCCOc1ccc(C[C@H](N)C(=O)O)cc1; 3Pal = N[C@@H](Cc1cccnc1)C(=O)O; αMeL = CC(C)C[C@](C)(N)C(=O)O; 3Amb = NCc1cccc(C(=O)O)c1; NMeS = CN[C@@H](CO)C(=O)O; Dab = NCC[C@H](N)C(=O)O; βAla = NCCC(=O)O

How the values were obtained:
[1] = Peptide stability in simulated gastric fluid (SGF); type: in vitro ADME; details: 37 °C, pH 1.2, porcine pepsin 3.2 g/L, 10 µM
Protocol: SGF was prepared by dissolving sodium chloride (0.2 g) in 50 mL of water. A volume of 0.7 mL of 10 M HCl was added to adjust the pH of the solution to 1.2 and the volume made up to 100 mL with water. […] SIF was prepared by dissolving monobasic potassium phosphate (0.68 g) in 50 mL of water and adjusting the pH to 6.8 with 1 M NaOH. The volume was subsequently made up to 100 mL with water. 200 mg porcine pancreatin (P1625, Sigma Aldrich) was gently dissolved into 20 mL preheated (37 °C) solution (10 g/L) immediately prior to the incubation.
The incubation was performed at 37 °C with gentle shaking. […] After the last timepoint, the sampling plate was mixed for 10 min on a shaking table and centrifuged 10 min at 2200 g. 70 µL resulting supernatant was diluted with 150 µL water, mixed and centrifugated before analysis by liquid chromatography high resolution mass spectrometry. […] Percent remaining at each timepoint was calculated relative to timepoint zero based on absolute peak areas.
Compounds with a SGF stability (after 4 h) above 70% are considered highly SGF stable. […] Table 3-4: SGF data

[2] = biological target: T1, human IL-23R endogenously expressed on DB cells (human, UniProt Q5VWK5 24-629); assay: cell-based or functional assay
T1 sequence (looked up): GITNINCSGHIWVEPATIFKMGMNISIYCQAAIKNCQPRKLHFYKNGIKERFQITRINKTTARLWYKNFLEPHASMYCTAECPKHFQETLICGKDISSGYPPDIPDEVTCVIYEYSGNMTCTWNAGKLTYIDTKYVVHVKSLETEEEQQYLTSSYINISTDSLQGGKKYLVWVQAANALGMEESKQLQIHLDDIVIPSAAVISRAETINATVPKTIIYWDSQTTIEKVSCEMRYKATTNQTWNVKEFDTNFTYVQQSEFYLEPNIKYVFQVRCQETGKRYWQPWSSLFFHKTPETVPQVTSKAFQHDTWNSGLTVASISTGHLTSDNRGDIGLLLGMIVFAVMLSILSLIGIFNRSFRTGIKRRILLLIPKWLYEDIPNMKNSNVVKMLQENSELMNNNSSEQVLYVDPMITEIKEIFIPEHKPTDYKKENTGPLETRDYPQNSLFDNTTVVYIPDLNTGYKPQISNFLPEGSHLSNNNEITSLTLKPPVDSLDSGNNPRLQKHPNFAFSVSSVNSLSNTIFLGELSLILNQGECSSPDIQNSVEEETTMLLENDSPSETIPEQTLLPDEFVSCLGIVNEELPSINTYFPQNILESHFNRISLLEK

[3] = biological target: T2, Nluc-IL23R fusion protein (human, UniProt Q5VWK5 22-629); assay: BRET competition vs TAMRA-labelled peptide, Nluc-IL23R membranes
T2 construct: range 22-629; expressed with a secretion signal in HEK293 cells; used as crude membrane preparation; also called hIL-23R; human IL-23R; not shown: Nanoluc protein from the expression plasmid N1371 (Promega), N-terminal of IL-23R
T2 sequence (looked up): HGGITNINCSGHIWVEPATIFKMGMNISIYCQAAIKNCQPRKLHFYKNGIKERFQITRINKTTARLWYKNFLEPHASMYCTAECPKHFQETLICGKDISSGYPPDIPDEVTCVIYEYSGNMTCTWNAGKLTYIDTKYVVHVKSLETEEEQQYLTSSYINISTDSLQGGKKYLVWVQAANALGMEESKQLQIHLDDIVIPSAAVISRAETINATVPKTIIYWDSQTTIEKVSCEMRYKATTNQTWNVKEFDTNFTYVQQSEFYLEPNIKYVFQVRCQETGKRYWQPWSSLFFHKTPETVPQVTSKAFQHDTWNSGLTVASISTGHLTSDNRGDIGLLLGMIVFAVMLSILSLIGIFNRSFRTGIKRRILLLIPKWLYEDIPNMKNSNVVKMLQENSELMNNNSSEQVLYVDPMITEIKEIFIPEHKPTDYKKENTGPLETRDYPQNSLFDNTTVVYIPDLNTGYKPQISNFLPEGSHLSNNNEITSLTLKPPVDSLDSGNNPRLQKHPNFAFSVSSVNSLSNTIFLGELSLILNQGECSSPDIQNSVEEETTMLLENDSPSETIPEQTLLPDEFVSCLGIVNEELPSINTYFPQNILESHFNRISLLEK

SGF (% remaining 1 h) [1]: 1% | SGF (% remaining 4 h) [1]: 0%
Molecule: CC(C)C[C@@H]1NC(=O)[C@H](Cc2c[nH]c3ccccc23)NC(=O)[C@H](Cc2c[nH]c3ccccc23)NC(=O)[C@@H]2CSCC(=O)CSC[C@H](NC(=O)[C@H](CO)NC(=O)[C@@H](NC(=O)[C@@H](N)CC(=O)O)CCC(=O)NCCCC[C@@H](C(=O)N[C@@H](CCCNC(=N)N)C(N)=O)NC1=O)C(=O)N[C@@H](Cc1c[nH]c3ccccc13)C(=O)N[C@@H](CCC(N)=O)C(=O)N2 [Ref 4, H-DE(1c)SC(2a)WQC(2a)WWLK(1c)R-[NH2], reference compound] (HELM PEPTIDE1{D.E.S.C.W.Q.C.W.W.L.K.R.[am]}|CHEM1{[O=C(C[*:1])C[*:2]]}$PEPTIDE1,PEPTIDE1,2:R3-11:R3|PEPTIDE1,CHEM1,4:R3-1:R1|PEPTIDE1,CHEM1,7:R3-1:R2$$$V2.0)

SGF (% remaining 1 h) [1]: 0% | SGF (% remaining 4 h) [1]: 0%
Molecule: CC(=O)N[C@@H](CC(=O)O)C(=O)N[C@H]1CCC(=O)NCCCC[C@@H](C(=O)N[C@@H](CCCNC(=N)N)C(N)=O)NC(=O)[C@H](CC(C)C)NC(=O)[C@H](Cc2ccc3ccccc3c2)NC(=O)[C@H](Cc2c[nH]c3ccccc23)NC(=O)[C@@H]2CSCC(=O)CSC[C@H](NC(=O)[C@H](CO)NC1=O)C(=O)N[C@@H](Cc1c[nH]c3ccccc13)C(=O)N[C@@H](CCC(N)=O)C(=O)N2 [Ref 17, [Ac]-DE(1c)SC(2a)WQC(2a)W[2-Nal]LK(1c)R-[NH2], reference compound]

hIL-23 (pSTAT3) antagonist % inhibition [2]: 100% | hIL-23 (pSTAT3) antagonist IC50 [2]: 3.5 nM | % displacement (hIL-23R binding) [3]: 104%
Molecule: [4‑Aminomethyl‑phenylacetyl]SEWQ[Dab][AEF][2Nal][αMeL]E[Dab]H[3Pal]-NH2 (lactam (positions not given here); lactam 3-6; not fully specified (bridges)) [Compound 12]

hIL-23 (pSTAT3) antagonist % inhibition [2]: 100% | hIL-23 (pSTAT3) antagonist IC50 [2]: 0.13 nM | % displacement (hIL-23R binding) [3]: 100%
B1: Ref 78 (peptide)
peptide: [3Amb]SCWQC[AEF][2Nal][αMeL]ER[3Pal]-NH2
modifications: lactam N-10; bridge 3-6; not fully specified (bridges); printed as [(3-Aminomethyl)benzoyl](1c)*SC(2a)WQC(2a)[Y(2-aminoethoxy)][2-Nal][2-Me-Leu]E(1c)R[3-(3-Pyridyl)-Ala]-[NH2]

hIL-23 (pSTAT3) antagonist % inhibition [2]: 101% | hIL-23 (pSTAT3) antagonist IC50 [2]: 3.4 nM | % displacement (hIL-23R binding) [3]: 96% | IC50 [3]: 0.035 nM
B2: Compound 22 (peptide)
peptide: [4‑Aminomethyl‑phenylacetyl]SEWA[Dab][AEF][2Nal][αMeL]E[Dab][3Pal]-NHMe
modifications: lactam N-10, 3-6
SMILES: CNC(=O)[C@H](Cc1cccnc1)NC(=O)[C@H](CCN)NC(=O)[C@@H]1CCC(=O)NCc2ccc(cc2)CC(=O)N[C@@H](CO)C(=O)N[C@H]2CCC(=O)NCC[C@H](NC(=O)[C@H](C)NC(=O)[C@H](Cc3c[nH]c4ccccc34)NC2=O)C(=O)N[C@@H](Cc2ccc(OCCN)cc2)C(=O)N[C@@H](Cc2ccc3ccccc3c2)C(=O)N[C@@](C)(CC(C)C)C(=O)N1

% displacement (hIL-23R binding) [3]: 96%
Molecule: [4‑Aminomethyl‑phenylacetyl][NMeS]EWQ[Dab][AEF][2Nal][αMeL]E[Dab][3Pal]-NHMe (lactam (positions not given here); lactam 3-6; not fully specified (bridges)) [Compound 18]

hIL-23 (pSTAT3) antagonist % inhibition [2]: 102% | hIL-23 (pSTAT3) antagonist IC50 [2]: 63 pM | % displacement (hIL-23R binding) [3]: 95%
B3: Compound 21 (peptide)
peptide: [4‑Aminomethyl‑phenylacetyl]FEWQ[Dab][AEF][2Nal][αMeL]E[Dab][3Pal]-NHMe
modifications: lactam N-10, 3-6
SMILES: CNC(=O)[C@H](Cc1cccnc1)NC(=O)[C@H](CCN)NC(=O)[C@@H]1CCC(=O)NCc2ccc(cc2)CC(=O)N[C@@H](Cc2ccccc2)C(=O)N[C@H]2CCC(=O)NCC[C@H](NC(=O)[C@H](CCC(N)=O)NC(=O)[C@H](Cc3c[nH]c4ccccc34)NC2=O)C(=O)N[C@@H](Cc2ccc(OCCN)cc2)C(=O)N[C@@H](Cc2ccc3ccccc3c2)C(=O)N[C@@](C)(CC(C)C)C(=O)N1

hIL-23 (pSTAT3) antagonist % inhibition [2]: 101% | hIL-23 (pSTAT3) antagonist IC50 [2]: 54 pM | % displacement (hIL-23R binding) [3]: 94%
B4: Ref 120 (peptide)
peptide: [4‑Aminomethyl‑phenylacetyl]SCWQC[AEF][2Nal][αMeL]E[Dab][3Pal]-NH2
modifications: lactam N-10; bridge 3-6; not fully specified (bridges); printed as [4-Aminomethyl-phenylacetyl](1c)*SC(2a)WQC(2a)[Y(2-aminoethoxy)][2-Nal][2-Me-Leu]E(1c)[Dab][3-(3-Pyridyl)-Ala]-[NH2]

hIL-23 (pSTAT3) antagonist % inhibition [2]: 100% | hIL-23 (pSTAT3) antagonist IC50 [2]: 31 pM | % displacement (hIL-23R binding) [3]: 97%
B5: Ref 155 (peptide)
peptide: Ac-KTCWQC[AEF][2Nal][αMeL]E[Dab][3Pal]-NH2
modifications: lactam 1-10; bridge 3-6; not fully specified (bridges); printed as [Ac]-K(1c)TC(2a)WQC(2a)[Y(2-aminoethoxy)][2-Nal][2-Me-Leu]E(1c)[Dab][3-(3-Pyridyl)-Ala]-[NH2]

hIL-23 (pSTAT3) antagonist % inhibition [2]: 97% | hIL-23 (pSTAT3) antagonist IC50 [2]: 11 nM | % displacement (hIL-23R binding) [3]: 103%
B6: Ref 82 (peptide)
peptide: [4‑Aminomethyl‑phenylacetyl]SCWQC[AEF][2Nal][αMeL]E[Dab]-NH2
modifications: lactam N-10; bridge 3-6; not fully specified (bridges); printed as [4-Aminomethyl-phenylacetyl](1c)*SC(2a)WQC(2a)[Y(2-aminoethoxy)][2-Nal][2-Me-Leu]E(1c)[Dab]-[NH2]

hIL-23 (pSTAT3) antagonist % inhibition [2]: 99% | hIL-23 (pSTAT3) antagonist IC50 [2]: 5.2 nM | % displacement (hIL-23R binding) [3]: 97% | IC50 [3]: 0.12 nM
B7: Compound 23 (peptide)
peptide: [4‑Aminomethyl‑phenylacetyl]SEWF[Dab][AEF][2Nal][αMeL]E[Dab][3Pal]-NHMe
modifications: lactam N-10, 3-6
SMILES: CNC(=O)[C@H](Cc1cccnc1)NC(=O)[C@H](CCN)NC(=O)[C@@H]1CCC(=O)NCc2ccc(cc2)CC(=O)N[C@@H](CO)C(=O)N[C@H]2CCC(=O)NCC[C@H](NC(=O)[C@H](Cc3ccccc3)NC(=O)[C@H](Cc3c[nH]c4ccccc34)NC2=O)C(=O)N[C@@H](Cc2ccc(OCCN)cc2)C(=O)N[C@@H](Cc2ccc3ccccc3c2)C(=O)N[C@@](C)(CC(C)C)C(=O)N1

% displacement (hIL-23R binding) [3]: 103%
Molecule: [3Pal][βAla]SCWQC[AEF][2Nal][αMeL]E[dR]-NH2 (lactam N-11; linker 4-7 via 1,3‑dithio‑propan‑2‑one) [Compound 2]
